Assay results published in patent US20220089698A1 (published 2022).
Numbering of substitutions follows the chain as printed.

Assays:
[1] = target: T1, Cyno FcγRIIB (cynomolgus macaque, UniProt A0A140HDN4 43-217); assay: SPR (Biacore 4000), antibody amine coupled to CM4 chip, receptor as analyte, steady-state fit
T1 construct: also called cynomolgus macaque FcγRIIB
T1 sequence: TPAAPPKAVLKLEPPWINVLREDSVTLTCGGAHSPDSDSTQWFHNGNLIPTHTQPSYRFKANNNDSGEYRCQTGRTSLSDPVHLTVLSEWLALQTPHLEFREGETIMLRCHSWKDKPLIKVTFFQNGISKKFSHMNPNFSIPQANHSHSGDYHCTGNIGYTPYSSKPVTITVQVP

[2] = target: T2, Cyno FcγRIIA (cynomolgus macaque, UniProt A0A140HDM9 28-216); assay: as above
T2 construct: also called cynomolgus macaque FcγRIIA
T2 sequence: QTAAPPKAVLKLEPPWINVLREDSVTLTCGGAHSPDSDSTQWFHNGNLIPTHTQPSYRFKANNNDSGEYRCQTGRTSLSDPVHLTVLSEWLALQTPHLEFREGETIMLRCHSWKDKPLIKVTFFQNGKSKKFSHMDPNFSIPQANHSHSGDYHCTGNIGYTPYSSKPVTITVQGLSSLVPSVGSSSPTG

[3] = target: HIV gp120 REJO (HIV-1)
[4] = target: HIV gp120 Bal (HIV-1)
[5] = target: HIV gp120 CAAN (HIV-1)
[6] = target: HIV gp120 CAAN (HIV); assay: single-point ELISA; note: test concentration or dose not given here
[7] = target: HIV gp120 Bal (HIV); assay: single-point ELISA; note: test concentration or dose not given here

B1: Antibody A-1 (antibody, human IgG1, kappa)
heavy: QVQLLQSGAAVTKPGASVRVSCEASGYNIRDYFIHWWRQAPGQGLQWVGWINPKTGQPNNPRQFQGRVSLTRHASWDFDTFSFYMDLKALRSDDTAVYFCARQRSDYWDFDVWGSGTQVTVSSASTKGPSVFPLAPSSKSTSGGTAALGCLVKDYFPEPVTVSWNSGALTSGVHTFPAVLQSSGLYSLSSVVTVPSSSLGTQTYICNVNHKPSNTKVDKKVEPKSCDKTHTCPPCPAPELLAGPDVFLFPPKPKDTLMISRTPEVTCVVVDVSHEDPEVKFNWYVDGVEVHNAKTKPREEQYNSTYRVVSVLTVLHQDWLNGKEYKCKVSNKALPLPEEKTISKAKGQPREPQVYTLPPSREEMTKNQVSLTCLVKGFYPSDIAVEWESNGQPENNYKTTPPVLDSDGSFFLYSKLTVDKSRWQQGNVFSCSVLHEALHSHYTQKSLSLSPGK
light: DIQMTQSPSSLSASVGDTVTITCQANGYLNWYQQRRGKAPKLLIYDGSKLERGVPSRFSGRRWGQEYNLTINNLQPEDIATYFCQVYEFVVPGTRLDLKRTVAAPSVFIFPPSDEQLKSGTASVVCLLNNFYPREAKVQWKVDNALQSGNSQESVTEQDSKDSTYSLSSTLTLSKADYEKHKVYACEVTHQGLSSPVTKSFNRGEC
With B1 the Kd [1] was 240 nM, the Kd [2] was 1100 nM and the EC50 [3] was 2.37 nM. For the same binder, the EC50 [4] was 0.06 nM and the EC50 [5] was 2.17 nM.

B2: Antibody 1.52.64-1 (antibody, human IgG1, kappa)
heavy: B1 heavy with W76F
light: B1 light with V19A
B2 was tested, and the Kd [1] was 280 nM, the Kd [2] was 1180 nM and the EC50 [3] was 4.02 nM. The EC50 [4] was 0.07 nM and the EC50 [5] was 3.79 nM.

B3: Antibody A (antibody, human IgG1, kappa)
heavy: not shown
light: B1 light
B3 showed a Kd [1] of 895 nM, a Kd [2] of 2000 nM and an EC50 [3] of 2.21 nM. It also gave an EC50 [4] of 0.05 nM and an EC50 [5] of 1.84 nM.

B4: 1.2.1-1 (antibody, human IgG1, kappa)
heavy: B1 heavy with A10E, T12K, Q118M
light: B1 light
In the case of B4, the “ELISA (A450)” value [6] is reported as 1.01 A450 and the “ELISA (A450)” value [7] is reported as 0.93 A450.

B5: 1.3.1-1 (antibody, human IgG1, kappa)
heavy: B1 heavy with Q3S
light: B1 light
In the case of B5, the “ELISA (A450)” value [6] is reported as 0.94 A450 and the “ELISA (A450)” value [7] is reported as 0.97 A450.

B6: 1.4.1-1 (antibody, human IgG1, kappa)
heavy: B1 heavy with L5V
light: B1 light
With B6 the “ELISA (A450)” value [6] was 0.96 A450 and the “ELISA (A450)” value [7] was 1.04 A450.

B7: 1.5.1-1 (antibody, human IgG1, kappa)
heavy: B1 heavy with L5V, E23K
light: B1 light
In the case of B7, the “ELISA (A450)” value [6] is reported as 1.07 A450 and the “ELISA (A450)” value [7] is reported as 0.92 A450.

B8: 1.6.1-1 (antibody, human IgG1, kappa)
heavy: B1 heavy with A10E
light: B1 light
B8 was tested, and the “ELISA (A450)” value [6] was 0.9 A450 and the “ELISA (A450)” value [7] was 0.95 A450.

B9: 1.7.1-1 (antibody, human IgG1, kappa)
heavy: B1 heavy with A10E, T12K
light: B1 light
In the case of B9, the “ELISA (A450)” value [6] is reported as 1.04 A450 and the “ELISA (A450)” value [7] is reported as 0.98 A450.

B10: 1.8.1-1 (antibody, human IgG1, kappa)
heavy: B1 heavy with L5V, A10E
light: B1 light
In the case of B10, the “ELISA (A450)” value [6] is reported as 0.9 A450 and the “ELISA (A450)” value [7] is reported as 0.86 A450.

B11: 1.9.1-1 (antibody, human IgG1, kappa)
heavy: B1 heavy with L5V, A10E, T12K, E23K
light: B1 light
For B11, the “ELISA (A450)” value [6] was 0.98 A450 and the “ELISA (A450)” value [7] was 1.08 A450.

B12: 1.10.1-1 (antibody, human IgG1, kappa)
heavy: B1 heavy with I34M
light: B1 light
B12 was tested, and the “ELISA (A450)” value [6] was 0.94 A450 and the “ELISA (A450)” value [7] was 0.95 A450.

B13: 1.11.1-1 (antibody, human IgG1, kappa)
heavy: B1 heavy with I34M, F83A
light: B1 light
B13 was tested, and the “ELISA (A450)” value [6] was 0.75 A450 and the “ELISA (A450)” value [7] was 0.93 A450.
